Drawing on patent publication US20250109210A1 (ABSCI, published 2025), this text covers IC50 for 1 molecule.

The target of test [1] is T1, TL1A (UniProt O95150 72-251, limits assumed).
T1 construct: also called TNFSF15
T1 sequence (looked up): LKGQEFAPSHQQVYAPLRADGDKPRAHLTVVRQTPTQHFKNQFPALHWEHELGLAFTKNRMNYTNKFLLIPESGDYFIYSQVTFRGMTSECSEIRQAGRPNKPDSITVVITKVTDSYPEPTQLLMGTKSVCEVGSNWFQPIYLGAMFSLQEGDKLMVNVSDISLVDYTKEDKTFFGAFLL
Briefly: selectivity ELISA: antibody pre-incubated with TL1A, inhibition of TL1A binding to plate-coated DcR3.

Test [2] deals with T1, TL1A. Briefly: selectivity ELISA: antibody pre-incubated with TL1A, inhibition of TL1A binding to plate-coated DR3. On the technique in general: ELISA stands for enzyme-linked immunosorbent assay.

As usually defined, the IC50 is the concentration that gives 50% inhibition.

B1: MK-7240 (antibody, V domains shown)
VH: QVQLVQSGAEVKKPGASVKVSCKASGFDIQDTYMHWVKQRPGQGLEWMGRIDPASGHTKYDPKFQVRVTITRDTSTSTVYLELSSLRSEDTAVYYCARSGGLPDVWGQGTTVTVSS
VL: EIVLTQSPGTLSLSPGERATLSCRASSSVSYMYWYQQKPGQAPRPLIYATSNLASGIPDRFSGSGSGTDFTLTISRLEPEDFAVYYCQQWEGNPRTFGGGTKLEIK
For B1, the IC50 in test [1] stood at 3.6 µg/mL; in test [2] it was 6.3 µg/mL.
